Data taken from US20250074980A1 (BRIGHAM AND WOMEN S HOSPITAL, published 2025).
Values joined by “and” are separate entries in the source; they are usually repeats but may differ in a detail not shown here. Equal values may be shown once.

T1: His-tagged CEACAM1 (human, UniProt P13688 35-428)
T1 construct: 45 kDa SPR analyte; also called CEACAM1-HIS; CEACAM1 analyte
T1 sequence: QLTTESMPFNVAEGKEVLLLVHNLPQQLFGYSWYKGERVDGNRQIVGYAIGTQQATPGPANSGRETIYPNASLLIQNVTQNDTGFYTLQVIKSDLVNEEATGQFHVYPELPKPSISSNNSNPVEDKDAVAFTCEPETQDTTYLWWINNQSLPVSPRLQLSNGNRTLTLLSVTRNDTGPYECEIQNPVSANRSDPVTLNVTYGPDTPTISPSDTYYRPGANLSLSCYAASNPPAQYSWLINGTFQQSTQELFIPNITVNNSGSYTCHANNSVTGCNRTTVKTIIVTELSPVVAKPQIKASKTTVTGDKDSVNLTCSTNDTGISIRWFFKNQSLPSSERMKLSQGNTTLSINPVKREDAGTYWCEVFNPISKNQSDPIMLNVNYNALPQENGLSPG

T2: CEACAM6 on transfected HeLa cells (human, UniProt P40199 35-320)
T2 construct: whole, on cells; also called HeLa-CEACAM6; HeLa C6
T2 sequence (looked up): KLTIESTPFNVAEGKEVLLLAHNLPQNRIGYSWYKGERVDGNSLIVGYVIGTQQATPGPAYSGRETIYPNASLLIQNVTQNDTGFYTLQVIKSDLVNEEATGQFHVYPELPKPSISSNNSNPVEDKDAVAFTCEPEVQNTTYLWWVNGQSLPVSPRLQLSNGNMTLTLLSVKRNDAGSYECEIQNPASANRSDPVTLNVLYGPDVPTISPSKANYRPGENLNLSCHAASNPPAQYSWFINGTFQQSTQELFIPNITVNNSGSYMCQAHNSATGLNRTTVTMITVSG

T3: CEACAM3 on transfected HeLa cells (human, UniProt P40198 35-252)
T3 construct: whole, on cells; also called HeLa-CEACAM3; HeLa C3
T3 sequence (looked up): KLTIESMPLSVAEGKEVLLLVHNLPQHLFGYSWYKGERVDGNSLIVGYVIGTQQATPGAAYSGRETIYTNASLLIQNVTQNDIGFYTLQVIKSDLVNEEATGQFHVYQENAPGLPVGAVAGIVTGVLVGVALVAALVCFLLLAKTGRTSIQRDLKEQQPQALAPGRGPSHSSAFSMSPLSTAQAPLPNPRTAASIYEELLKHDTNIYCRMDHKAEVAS

T4: CEACAM8 on transfected HeLa cells (human, UniProt P31997 35-320)
T4 construct: whole, on cells; also called HeLa-CEACAM8; HeLa C8
T4 sequence (looked up): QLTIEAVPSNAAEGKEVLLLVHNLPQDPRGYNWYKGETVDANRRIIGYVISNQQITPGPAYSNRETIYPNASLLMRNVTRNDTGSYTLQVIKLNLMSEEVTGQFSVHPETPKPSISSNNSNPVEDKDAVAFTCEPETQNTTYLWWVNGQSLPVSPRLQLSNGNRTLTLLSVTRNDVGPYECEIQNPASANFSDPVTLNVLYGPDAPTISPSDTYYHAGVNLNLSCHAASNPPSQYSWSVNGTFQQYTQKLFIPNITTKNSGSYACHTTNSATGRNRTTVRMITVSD

T5: GST-CEACAM1 (human, UniProt P13688 35-141, limits assumed)
T5 construct: also called human CEACAM1-GST protein
T5 sequence: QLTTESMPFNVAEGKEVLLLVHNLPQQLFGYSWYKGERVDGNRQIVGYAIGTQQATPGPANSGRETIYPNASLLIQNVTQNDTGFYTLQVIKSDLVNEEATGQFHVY


Key:
His-tagged CEACAM1 [1] = biological target: T1, His-tagged CEACAM1; assay: SPR single-cycle, IgG captured
How it was run: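 Biacore T200 single-cycle kinetics at 25° C in HBS-P+ (pH 7.4): antibodies (purified or HEK EBNA supernatant, 1 μg/ml) captured on Protein A to ~75 RU, His-tagged CEACAM1 analyte at 3.125–50 nM (5-point 2-fold) at 50 μl/min without regeneration. Reference channel Fc1 subtracted.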

[2] = biological target: T2, CEACAM6 on transfected HeLa cells; assay: flow cytometry, HeLa-CEACAM6 transfectants, % positive cells
Procedure: Binding selectivity for CEACAM1 was tested for the 24 humanized antibody variants that bound to CEACAM1 (see Table 3), as well as the chimeric control antibody VH0/Vκ0, by flow cytometry on HeLa cells transfected with CEACAM1, 3, 5, 6 and 8. […] There was no evidence of any staining of the HeLa-CEACAM3 or HeLa-CEACAM8 transfectants. […] Due to its favorable affinity to and selectivity for CEACAM1 as well as its favorable expression level, VH1/Vκ8 was chosen as the framework for affinity maturation.

[3] = biological target: T3, CEACAM3 on transfected HeLa cells; assay: flow cytometry, transfected HeLa
How it was run: (§1)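 Binding selectivity was assessed by flow cytometry and is expressed as the staining of each HeLa transfectant, each stably carrying a single CEACAM family member. The cells were kept at 37° C, 5.0% CO₂ in DMEM containing 10% fetal bovine serum. Staining used the test antibody followed by a fluorochrome-conjugated isotype-specific secondary antibody, and DAPI marked viability.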

[4] = biological target: T4, CEACAM8 on transfected HeLa cells; assay: flow cytometry, transfected HeLa
How it was run: as §1

His-tagged CEACAM1 [5] = biological target: T1, His-tagged CEACAM1; assay: SPR multi-cycle, IgG captured
Procedure: As an alternative approach to assess the binding of the 36 antibody combinations and the three control antibodies to CEACAM1, a kinetic analysis was performed on a Biacore T200 (serial no. 1909913) running Biacore T200 Evaluation Software V2.0.1 (Uppsala, Sweden). All experiments were run at 25° C. with HBS-P+ running buffer (pH 7.4) (GE Healthcare, cat. no. BR100671). All kinetic experiments were performed using His-tagged CEACAM1 as the analyte. For all experiments, antibodies were immobilized onto a Series S Protein A sensor chip surface. For kinetic experiments, the amount of immobilized/captured ligand was limited to avoid mass transfer effects at the surface of the chip with the surface ideally having an analyte binding level (Rₘₐₓ) of 50-150 RUs. Using a MW of 45 kDa for the CEACAM1 analyte, 150 kDa for the antibody ligand (estimated value for IgG), 50 RU for Rmax and the stoichiometry (Sm) as 2 due to the ability of each antibody to bind 2 target molecules, a target response level of ˜75 RUs was set for capture of all the sample antibodies.
The signal from the reference channel Fc1 was subtracted from that of Fc2, Fc3 and Fc4 to correct for differences in non-specific binding to a reference surface, a global Rmax parameter was used in the 1-to-1 binding model. The relative Kp compared to […] was calculated by dividing the Kp of the humanized CEACAM antibody variants by that of the chimeric antibody VH0/Vκ0 on the same chip. A summary of the averaged relative Kp obtained for the 12 antibody combinations analyzed using multi cycle kinetics can be found in Table 5.

GST-CEACAM1 = biological target: T5, GST-CEACAM1; assay: competition ELISA vs parental murine antibody
Procedure: The binding of the purified antibodies to human CEACAM1 was assessed in a competition ELISA assay. Nunc Immuno MaxiSorp 96 well flat bottom microtitre plates were pre-coated with 1 μg/ml of GST-CEACAM1 in 1×PBS, overnight at 4° C. The following day the plates were blocked for 1 hour at room temperature (“RT”) with 2% BSA/PBS before washing 3× with PBST pH 7.4. A 3-fold dilution series of the chimeric antibody chimeric antibody VH0/Vκ0, an irrelevant IgG4 antibody, and the humanized CEACAM1 antibodies from 100 μg/ml to 0.07 or 0.002 μg/ml were pre-mixed with a constant concentration of parental murine antibody (0.45 μg/ml final concentration), added to the plate and incubated for 1 hour at room temperature. Following 3×PBST washes, the binding of the parental murine CEACAM1 antibody was detected with an anti-mouse-HRP and TMB substrate. The reaction was stopped with 3 M HCl, absorbance read at 450 nm on a Dynex Technologies MRX TC II plate reader and the binding curves plotted. The binding of the humanized CEACAM antibody variants to CEACAM1 was compared to the chimeric antibody (VHO/Vκ0), which was included on each plate.

Row | Kd (His-tagged CEACAM1 [1]) | relative KD to VH0/Vκ0 (His-tagged CEACAM1 [1]) | binding result [2] | binding result [3] | binding result [4] | Kd (His-tagged CEACAM1 [5]) | average relative KD to VH0/Vκ0 (His-tagged CEACAM1 [5]) | binding result (GST-CEACAM1) | koff (His-tagged CEACAM1 [5]) | kon (His-tagged CEACAM1 [5]) | relative KD to VH0/Vκ0 (His-tagged CEACAM1 [5]) | binding result (His-tagged CEACAM1 [1]) | Binder
1 | 110 nM | 2.7 | no binding | no binding | no binding | 96 nM and 75 nM | 1.9 |  |  |  |  |  | VH2/Vκ9 (antibody, IgG4, V domains shown, IgG4 (S241P), kappa) VH: EVQLLESGGGLVQPGGSLRLSCAASGFIFSSHGMSWVRQAPGKGLEWVATISSGGTYTYYPDSVKGRFTISRDNSKNTLYLQMNSLRAEDTAMYYCARHDFDYDAAWFAYWGQGTLVTVSS VL: EIVLTQSPATLSLSPGERATLSCRANSSVSYMYWYQQKPGQAPRPLIYLTSNRATGVPARFSGSGSGTDYTLTISSLEPEDFATYYCQQWSSNPPTFGQGTKLEIK
2 |  |  |  |  |  |  |  | no binding (tested: 100 µg/ml) |  |  |  |  | VH2/Vκ3 (antibody, IgG4, V domains shown, IgG4 (S241P), kappa) VH: EVQLLESGGGLVQPGGSLRLSCAASGFIFSSHGMSWVRQAPGKGLEWVATISSGGTYTYYPDSVKGRFTISRDNSKNTLYLQMNSLRAEDTAMYYCARHDFDYDAAWFAYWGQGTLVTVSS VL: EIVLTQSPATLSLSPGERATLSCRANSSVSYMAWYQQKPGQAPRPWIYLTSNRATGVPARFSGSGSGTDYTLTISSLEPEDFATYYCQQWSSNPPTFGQGTKLEIK
3 | 131 nM | 3.2 | no binding | no binding | no binding | 61 nM | 2.1 |  | 0.0246 s⁻¹ | 407000 M⁻¹ s⁻¹ | 2.1 |  | VH2/Vκ10 (antibody, IgG4, V domains shown, IgG4 (S241P), kappa) VH: EVQLLESGGGLVQPGGSLRLSCAASGFIFSSHGMSWVRQAPGKGLEWVATISSGGTYTYYPDSVKGRFTISRDNSKNTLYLQMNSLRAEDTAMYYCARHDFDYDAAWFAYWGQGTLVTVSS VL: EIVLTQSPATLSLSPGERATLSCRANSSVSYMYWYQQKPGQAPRPWIYLTSNRATGIPARFSGSGSGTDFTLTISSLEPEDFATYYCQQWSSNPPTFGQGTKLEIK
4 |  |  |  |  |  |  |  | no binding (tested: 100 µg/ml) |  |  |  | no binding (tested: 50 nM) | VH4/Vκ3 (antibody, IgG4, V domains shown, IgG4 (S241P), kappa) VH: EVQLLESGGGLVQPGGSLRLSCAASGFIFSSHGMSWVRQAPGKGLEWVSTISSGGTYTYYADSVKGRFTISRDNSKNTLYLQMNSLRAEDTAVYYCARHDFDYDAAWFAYWGQGTLVTVSS VL: EIVLTQSPATLSLSPGERATLSCRANSSVSYMAWYQQKPGQAPRPWIYLTSNRATGVPARFSGSGSGTDYTLTISSLEPEDFATYYCQQWSSNPPTFGQGTKLEIK
5 |  |  |  |  |  |  |  | no binding (tested: 100 µg/ml) |  |  |  | no binding (tested: 50 nM) | VH4/Vκ5 (antibody, IgG4, V domains shown, IgG4 (S241P), kappa) VH: EVQLLESGGGLVQPGGSLRLSCAASGFIFSSHGMSWVRQAPGKGLEWVSTISSGGTYTYYADSVKGRFTISRDNSKNTLYLQMNSLRAEDTAVYYCARHDFDYDAAWFAYWGQGTLVTVSS VL: EIVLTQSPATLSLSPGERATLSCRANSSVSYMAWYQQKPGQAPRLLIYLTSNRATGIPARFSGSGSGTDFTLTISSLEPEDFAVYYCQQWSSNPPTFGQGTKLEIK
6 | 145 nM | 3.5 | no binding | no binding | no binding | 152 nM | 2.7 |  | 0.0458 s⁻¹ | 302000 M⁻¹ s⁻¹ | 2.7 |  | VH2/Vκ12 (antibody, IgG4, V domains shown, IgG4 (S241P), kappa) VH: EVQLLESGGGLVQPGGSLRLSCAASGFIFSSHGMSWVRQAPGKGLEWVATISSGGTYTYYPDSVKGRFTISRDNSKNTLYLQMNSLRAEDTAMYYCARHDFDYDAAWFAYWGQGTLVTVSS VL: EIVLTQSPATLSLSPGERATLSCRANSSVSYMYWYQQKPGQAPRPLIYLTSNRATGIPARFSGSGSGTDYTLTISSLEPEDFATYYCQQWSSNPPTFGQGTKLEIK
7 | 122 nM | 3 | no binding | no binding | no binding | 77 nM | 2.7 |  | 0.0289 s⁻¹ | 375000 M⁻¹ s⁻¹ | 2.5 |  | VH2/Vκ11 (antibody, IgG4, V domains shown, IgG4 (S241P), kappa) VH: EVQLLESGGGLVQPGGSLRLSCAASGFIFSSHGMSWVRQAPGKGLEWVATISSGGTYTYYPDSVKGRFTISRDNSKNTLYLQMNSLRAEDTAMYYCARHDFDYDAAWFAYWGQGTLVTVSS VL: EIVLTQSPATLSLSPGERATLSCRANSSVSYMYWYQQKPGQAPRPWIYLTSNRATGIPARFSGSGSGTDYTLTISSLEPEDFAVYYCQQWSSNPPTFGQGTKLEIK
